Laboratory results: publication PMC2711601

Target: ribosomes of dog pancreas rough microsomes (ribosomal pellet after digitonin solubilisation) (dog (endogenous in dog pancreas microsomes))
Experiment: co-sedimentation

Substance | percent in the ribosome pellet [%] | percent pelleted with ribosomes [%]
RAMP4 (ribosome-associated membrane protein 4, dog pancreas microsomes) (from UniProt A0A8I3PRN4 1-66) (natural protein) | 10 to 20 | –
Sec61β, subunit of the Sec61p translocon complex (dog pancreas microsomes) (from UniProt P60467 1-96) (natural protein) | – | 80
